Results reported in patent US20230045873A1 (ONCOONE RESEARCH AND DEVELOPMENT, published 2023).

Target: T1, oxMIF (recombinant human MIF immobilized into microwell plates, transforming MIF to oxMIF) (human, UniProt P14174 2-115)
T1 construct: also called immobilized MIF (oxMIF); immobilized oxMIF
Assay: ELISA on immobilized MIF (oxMIF), protein L-HRP detection, mean of triplicate
Method: Recombinant human MIF (1 μg/ml) diluted in PBS was immobilized into microwell plates (transforming MIF to oxMIF according to Thiele M. et al., 2015, J Immunol 2015; 195:2343-2352). After blocking, the bispecific antibodies were added to the plates at different concentrations. Bound bispecific antibodies were detected using protein L-HRP conjugate. Plates were developed by adding 3 3′5 5′tetramethylbenzidine (TMB) and chromogenic reaction was stopped with […]. OD was measured at 450 nm.
The binding curves of anti-oxMIF/CD3 bispecific antibodies C0061 and C0062 binding towards immobilized MIF (oxMIF) in an ELISA are depicted in FIG. 4. The monospecific anti-oxMIF antibody C0008 was used as positive control for oxMIF binding. EC50 values of the binding curves, which reflect rough KD estimates, were calculated by 4-parameter fit.

T1 sequence (P14174 2-115 limits assumed): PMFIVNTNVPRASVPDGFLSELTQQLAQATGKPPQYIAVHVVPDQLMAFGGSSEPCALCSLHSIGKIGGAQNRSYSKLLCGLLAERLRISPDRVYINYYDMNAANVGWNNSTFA

EC50: 0.9 nM
B1: C0061 (Anti-oxMIF Fab and anti-oxMIF/anti-CD3 BiTE fused to Fc; Fab-BiTE-Fc) (bispecific antibody, human IgG1, kappa)
heavy: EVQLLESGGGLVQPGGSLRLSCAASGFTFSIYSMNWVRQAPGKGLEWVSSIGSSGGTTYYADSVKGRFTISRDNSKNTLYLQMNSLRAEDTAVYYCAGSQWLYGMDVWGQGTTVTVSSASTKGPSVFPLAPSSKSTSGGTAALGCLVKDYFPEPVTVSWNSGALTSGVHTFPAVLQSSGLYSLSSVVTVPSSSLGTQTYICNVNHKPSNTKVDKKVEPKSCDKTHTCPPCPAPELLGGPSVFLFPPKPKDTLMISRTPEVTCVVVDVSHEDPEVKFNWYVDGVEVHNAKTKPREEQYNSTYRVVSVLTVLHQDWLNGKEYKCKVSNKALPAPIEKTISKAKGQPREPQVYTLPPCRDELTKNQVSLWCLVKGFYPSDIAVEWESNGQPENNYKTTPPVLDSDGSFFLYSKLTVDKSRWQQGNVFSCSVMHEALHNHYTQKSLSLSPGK
chain: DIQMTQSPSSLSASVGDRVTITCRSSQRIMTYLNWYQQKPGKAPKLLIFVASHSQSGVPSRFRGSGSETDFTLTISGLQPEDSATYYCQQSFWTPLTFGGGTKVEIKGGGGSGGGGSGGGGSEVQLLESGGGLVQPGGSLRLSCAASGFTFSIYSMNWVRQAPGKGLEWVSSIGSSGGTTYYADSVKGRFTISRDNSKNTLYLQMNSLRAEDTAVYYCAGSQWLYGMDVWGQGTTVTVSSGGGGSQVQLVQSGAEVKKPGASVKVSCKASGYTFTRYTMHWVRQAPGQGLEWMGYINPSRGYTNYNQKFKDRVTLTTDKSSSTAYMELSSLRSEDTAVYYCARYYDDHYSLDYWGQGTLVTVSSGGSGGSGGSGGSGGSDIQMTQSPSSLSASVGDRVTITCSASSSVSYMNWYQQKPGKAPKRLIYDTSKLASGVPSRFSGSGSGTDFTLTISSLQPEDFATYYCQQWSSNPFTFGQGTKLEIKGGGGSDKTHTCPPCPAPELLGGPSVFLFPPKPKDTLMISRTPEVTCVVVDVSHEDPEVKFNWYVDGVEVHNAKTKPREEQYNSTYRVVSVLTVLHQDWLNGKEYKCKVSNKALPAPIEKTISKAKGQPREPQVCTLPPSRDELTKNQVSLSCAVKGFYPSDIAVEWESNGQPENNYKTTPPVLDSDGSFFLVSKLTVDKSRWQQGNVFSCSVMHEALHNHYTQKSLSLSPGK
light: DIQMTQSPSSLSASVGDRVTITCRSSQRIMTYLNWYQQKPGKAPKLLIFVASHSQSGVPSRFRGSGSETDFTLTISGLQPEDSATYYCQQSFWTPLTFGGGTKVEIKRTVAAPSVFIFPPSDEQLKSGTASVVCLLNNFYPREAKVQWKVDNALQSGNSQESVTEQDSKDSTYSLSSTLTLSKADYEKHKVYACEVTHQGLSSPVTKSFNRGEC
notes: Three polypeptides; bivalent for oxMIF, monovalent for CD3
